Reference: patent EP3766512A1 (Universität Zürich, dated 2021)

Key:
Assay in all cases: Protein G affinity chromatography bead
human IL-12Fc NAE = molecular target: T1, human IL-12Fc NAE (human, UniProt P29460 23-328; P29459 23-219)
T1 construct: not shown: linker between p40 and p35 of single chain IL-12 not described; junction or linker between IL-12 and Fc not described

human IL-12Fc NAH = molecular target: T2, human IL-12Fc NAH (human, UniProt P29460 23-328; P29459 23-219)
T2 construct: not shown: linker between p40 and p35 of single chain IL-12 not described; junction or linker between IL-12 and Fc not described
T2 sequence (P29460 other isoform, or with tags, fused parts or gaps): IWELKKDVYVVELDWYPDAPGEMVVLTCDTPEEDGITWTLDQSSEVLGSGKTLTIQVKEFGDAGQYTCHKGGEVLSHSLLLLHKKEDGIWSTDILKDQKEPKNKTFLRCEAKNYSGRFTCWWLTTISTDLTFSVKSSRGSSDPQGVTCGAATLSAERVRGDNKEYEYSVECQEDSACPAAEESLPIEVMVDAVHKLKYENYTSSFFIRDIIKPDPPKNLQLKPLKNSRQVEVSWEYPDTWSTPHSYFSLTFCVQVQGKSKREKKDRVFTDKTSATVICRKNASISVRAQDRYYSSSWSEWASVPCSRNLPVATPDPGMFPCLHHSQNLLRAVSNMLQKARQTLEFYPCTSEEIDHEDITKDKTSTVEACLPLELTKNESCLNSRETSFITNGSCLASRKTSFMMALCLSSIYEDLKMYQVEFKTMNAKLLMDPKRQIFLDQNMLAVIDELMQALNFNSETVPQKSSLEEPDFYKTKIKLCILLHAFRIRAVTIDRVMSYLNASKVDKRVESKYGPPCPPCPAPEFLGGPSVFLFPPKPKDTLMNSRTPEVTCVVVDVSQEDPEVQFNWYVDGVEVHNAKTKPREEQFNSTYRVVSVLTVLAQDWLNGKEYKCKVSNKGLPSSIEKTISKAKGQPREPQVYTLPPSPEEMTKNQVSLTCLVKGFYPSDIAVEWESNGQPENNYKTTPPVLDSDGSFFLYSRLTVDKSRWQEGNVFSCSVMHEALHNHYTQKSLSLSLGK

human IL-12Fc NAA = molecular target: T3, human IL-12Fc NAA (human, UniProt P29460 23-328; P29459 23-219)
T3 construct: not shown: linker between p40 and p35 of single chain IL-12 not described; junction or linker between IL-12 and Fc not described
T3 sequence (P29460 other isoform, or with tags, fused parts or gaps): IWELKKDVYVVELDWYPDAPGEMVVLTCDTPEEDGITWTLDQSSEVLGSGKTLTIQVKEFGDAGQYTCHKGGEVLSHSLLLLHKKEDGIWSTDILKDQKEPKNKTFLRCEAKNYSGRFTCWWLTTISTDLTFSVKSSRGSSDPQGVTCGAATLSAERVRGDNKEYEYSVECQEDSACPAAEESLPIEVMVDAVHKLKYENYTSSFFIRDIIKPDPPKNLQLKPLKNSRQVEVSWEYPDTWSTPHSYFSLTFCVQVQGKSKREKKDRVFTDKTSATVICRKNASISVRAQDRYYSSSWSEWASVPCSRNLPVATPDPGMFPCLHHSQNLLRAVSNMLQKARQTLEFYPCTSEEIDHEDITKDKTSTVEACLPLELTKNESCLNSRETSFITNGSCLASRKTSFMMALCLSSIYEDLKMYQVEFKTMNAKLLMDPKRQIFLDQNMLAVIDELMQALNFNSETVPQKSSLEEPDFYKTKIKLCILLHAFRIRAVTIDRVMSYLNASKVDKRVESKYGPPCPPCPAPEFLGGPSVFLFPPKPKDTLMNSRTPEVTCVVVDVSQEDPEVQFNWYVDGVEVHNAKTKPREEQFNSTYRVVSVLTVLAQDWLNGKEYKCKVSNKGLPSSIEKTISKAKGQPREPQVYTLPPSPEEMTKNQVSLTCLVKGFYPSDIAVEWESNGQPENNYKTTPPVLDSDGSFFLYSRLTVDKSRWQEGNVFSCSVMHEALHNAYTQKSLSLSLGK

Measured: binding result

T1 sequence (P29460 other isoform, or with tags, fused parts or gaps): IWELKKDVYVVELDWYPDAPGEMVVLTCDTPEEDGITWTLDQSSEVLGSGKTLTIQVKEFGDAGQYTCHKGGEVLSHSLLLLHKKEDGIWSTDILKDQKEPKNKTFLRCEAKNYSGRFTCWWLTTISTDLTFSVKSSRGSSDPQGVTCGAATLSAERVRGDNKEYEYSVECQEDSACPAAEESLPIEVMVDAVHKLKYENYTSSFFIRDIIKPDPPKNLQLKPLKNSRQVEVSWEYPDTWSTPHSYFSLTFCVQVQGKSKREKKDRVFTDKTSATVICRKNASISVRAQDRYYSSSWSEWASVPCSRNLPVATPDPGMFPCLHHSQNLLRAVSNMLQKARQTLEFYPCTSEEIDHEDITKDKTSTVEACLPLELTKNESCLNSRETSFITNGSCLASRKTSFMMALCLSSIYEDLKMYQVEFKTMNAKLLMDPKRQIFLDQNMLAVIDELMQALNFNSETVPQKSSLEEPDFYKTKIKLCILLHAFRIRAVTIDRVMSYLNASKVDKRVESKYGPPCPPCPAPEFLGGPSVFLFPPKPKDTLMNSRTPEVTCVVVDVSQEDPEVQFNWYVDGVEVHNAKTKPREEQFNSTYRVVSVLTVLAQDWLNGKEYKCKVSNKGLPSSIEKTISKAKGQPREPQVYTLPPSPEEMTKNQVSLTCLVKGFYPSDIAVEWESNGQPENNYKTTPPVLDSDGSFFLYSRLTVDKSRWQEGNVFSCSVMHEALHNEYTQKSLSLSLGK

B1: Protein G (chromatography bead) (other, UniProt P19909 303-497, looked up)
chain: TYKLILNGKTLKGETTTEAVDAATAEKVFKQYANDNGVDGEWTYDDATKTFTVTEKPEVIDASELTPAVTTYKLVINGKTLKGETTTEAVDAATAEKVFKQYANDNGVDGEWTYDDATKTFTVTEKPEVIDASELTPAVTTYKLVINGKTLKGETTTKAVDAETAEKAFKQYANDNGVDGVWTYDDATKTFTVTE
no binding: all assays above
